According to patent US20250215083A1 (JIANGSU HENGRUI PHARMACEUTICALS, published 2025):

Tests used:
[1] = molecular target: T1, human GPRC5D (human, UniProt Q9NZD1 1-345); test: FACS, MM.1R cells
T1 construct: whole, on cells; also called membrane surface GPRC5D
Experimental: (§1) To test the capacity of the GPRC5D/CD3 bispecific antibodies of the present disclosure to bind to GPRC5D, a flow cytometry assay was used in this test example to measure the capacity of the GPRC5D/CD3 bispecific antibodies to bind to the human multiple myeloma cell line MM.1R (ATCC® CRL-2975), which expresses GPRC5D, and to a stably transfected cell strain CHOK1-cynoGPRC5D, which expresses cynomolgus monkey GPRC5D. The specific procedure was as follows: The cells described above were cultured in complete culture medium containing 10% FBS, incubated in a 37° C., 5% CO₂ incubator for 2 days, and added to a cell plate at 1×10⁵ cells/well. The plate was centrifuged at 300 g for 5 min and washed once with 1% BSA. The antibodies were serially diluted to 8 concentrations and added to the cell plate at 100 μL/well. The plate was incubated at 4° C. for 1 h and washed once with 1% BSA. […] The plate was washed three times with 1% BSA, PBS was added at 100 μL/well, and plate reading was performed.

[2] = molecular target: T2, cynomolgus monkey GPRC5D (cynomolgus monkey); test: FACS, CHOK1-cynoGPRC5D cells
T2 construct: whole, on cells; also called CynoGPRC5D; cynoGPRC5D
Experimental: as §1

T1 sequence (Q9NZD1 whole entry): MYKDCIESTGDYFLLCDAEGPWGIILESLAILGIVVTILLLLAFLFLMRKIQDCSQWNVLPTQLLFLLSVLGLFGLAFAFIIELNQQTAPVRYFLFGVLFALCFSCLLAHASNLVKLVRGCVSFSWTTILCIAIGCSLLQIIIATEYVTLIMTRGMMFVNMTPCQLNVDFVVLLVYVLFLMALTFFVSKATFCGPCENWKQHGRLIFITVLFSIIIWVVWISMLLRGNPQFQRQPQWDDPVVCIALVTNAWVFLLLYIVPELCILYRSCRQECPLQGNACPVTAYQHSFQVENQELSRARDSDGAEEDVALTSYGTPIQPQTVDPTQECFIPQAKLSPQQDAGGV

Row | Binder | EC50 [1] | Max [1] | EC50 [2] | Max [2]
1 | F4-1 (bispecific antibody, formula 4) heavy 1: not shown light 1: not shown heavy 2: EVQLVESGGGLVQPGGSLRLSCAASGFTFTDYYLSWVRQAPGKGLEWVAFIRNRAKGYTTEYSASVKGRFTISRDNAKNSLYLQMNSLRAEDTAVYYCARMGGKGWHFDVWGQGTTVTVSSASTKGPSVFPLAPSSKSTSGGTAALGCLVKDYFPEPVTVSWNSGALTSGVHTFPAVLQSSGLYSLSSVVTVPSSSLGTQTYICNVNHKPSNTKVDKKVEPKSCDKTHTCPPCPAPEAAGGPSVFLFPPKPKDTLMISRTPEVTCVVVDVSHEDPEVKFNWYVDGVEVHNAKTKPREEQYNSTYRVVSVLTVLHQDWLNGKEYKCKVSNKALPAPIEKTISKAKGQPREPQVCTLPPSRDELTKNQVSLSCAVKGFYPSDIAVEWESNGQPENNYKTTPPVLDSDGSFFLVSKLTVDKSRWQQGNVFSCSVMHEALHNHYTQKSLSLSPGK light 2: DVVMTQSPLSLPVTPGEPASISCRSSQSIVHSNRNTYLEWYLQKPGQSPKLLIYKVSNRFSGVPDRFFGSGSGTDFTLKINRVEAEDVGVYYCFQGSHVPFTFGGGTKVEIKRTVAAPSVFIFPPSDEQLKSGTASVVCLLNNFYPREAKVQWKVDNALQSGNSQESVTEQDSKDSTYSLSSTLTLSKADYEKHKVYACEVTHQGLSSPVTKSFNRGEC | 16.9 nM | 13800 | 3.28 nM | 76600
2 | F4-2 (bispecific antibody, formula 4) heavy 1: not shown light 1: not shown heavy 2: EVQLVESGGGLVQPGGSLRLSCAASGFTFTDYYLSWVRQAPGKGLEWVAFIRNRAKGYTTEYSASVKGRFTISRDNSKNSLYLQMNSLRAEDTAVYYCARMGGKGWHFDVWGQGTTVTVSSASTKGPSVFPLAPSSKSTSGGTAALGCLVKDYFPEPVTVSWNSGALTSGVHTFPAVLQSSGLYSLSSVVTVPSSSLGTQTYICNVNHKPSNTKVDKKVEPKSCDKTHTCPPCPAPEAAGGPSVFLFPPKPKDTLMISRTPEVTCVVVDVSHEDPEVKFNWYVDGVEVHNAKTKPREEQYNSTYRVVSVLTVLHQDWLNGKEYKCKVSNKALPAPIEKTISKAKGQPREPQVCTLPPSRDELTKNQVSLSCAVKGFYPSDIAVEWESNGQPENNYKTTPPVLDSDGSFFLVSKLTVDKSRWQQGNVFSCSVMHEALHNHYTQKSLSLSPGK light 2: DVVMTQSPLSLPVTPGEPASISCRSSQSIVHSNRNTYLEWYLQKPGQSPKLLIYKVSNRFSGVPDRFFGSGSGTDFTLKINRVEAEDVGVYYCFQGSHVPFTFGGGTKVEIKRTVAAPSVFIFPPSDEQLKSGTASVVCLLNNFYPREAKVQWKVDNALQSGNSQESVTEQDSKDSTYSLSSTLTLSKADYEKHKVYACEVTHQGLSSPVTKSFNRGEC | 15.8 nM | 13700 | 3.45 nM | 75200
3 | F4-3 (bispecific antibody, formula 4) heavy 1: not shown light 1: not shown heavy 2: EVQLVESGGGLVQPGGSLRLSCAASGFTFTDYYLSWVRQAPGKGLEWVAFIRNRAKGYTTEYSASVKGRFTISRDNAQNSLYLQMNSLRAEDTAVYYCARMGGKGWHFDVWGQGTTVTVSSASTKGPSVFPLAPSSKSTSGGTAALGCLVKDYFPEPVTVSWNSGALTSGVHTFPAVLQSSGLYSLSSVVTVPSSSLGTQTYICNVNHKPSNTKVDKKVEPKSCDKTHTCPPCPAPEAAGGPSVFLFPPKPKDTLMISRTPEVTCVVVDVSHEDPEVKFNWYVDGVEVHNAKTKPREEQYNSTYRVVSVLTVLHQDWLNGKEYKCKVSNKALPAPIEKTISKAKGQPREPQVCTLPPSRDELTKNQVSLSCAVKGFYPSDIAVEWESNGQPENNYKTTPPVLDSDGSFFLVSKLTVDKSRWQQGNVFSCSVMHEALHNHYTQKSLSLSPGK light 2: DVVMTQSPLSLPVTPGEPASISCRSSQSIVHSNRNTYLEWYLQKPGQSPKLLIYKVSNRFSGVPDRFFGSGSGTDFTLKINRVEAEDVGVYYCFQGSHVPFTFGGGTKVEIKRTVAAPSVFIFPPSDEQLKSGTASVVCLLNNFYPREAKVQWKVDNALQSGNSQESVTEQDSKDSTYSLSSTLTLSKADYEKHKVYACEVTHQGLSSPVTKSFNRGEC | 16.1 nM | 13800 | 3.83 nM | 76100
4 | F11-19 (bispecific antibody, formula 11 with Chi-30 variable regions) heavy: not shown light: DIVMTQSQKFMSTSVGDRVSVTCKASQNVGSNVAWYQQKPGQSPKALIYSASYRYSGVPDRFTGSGSGTDFTLTISNVQSEDLAEYFCHQYNSYPPTFGAGTKLALKRTVAAPSVFIFPPSDEQLKSGTASVVCLLNNFYPREAKVQWKVDNALQSGNSQESVTEQDSKDSTYSLSSTLTLSKADYEKHKVYACEVTHQGLSSPVTKSFNRGEC | 1.32 nM | 1140 | 2.71 nM | 9790
5 | F11-18 (bispecific antibody, formula 11 with Chi-24 variable regions) heavy: not shown light: DVVLTQTPLTLSVTIGQPASISCKSSQSLLHSNGKTYLNWLLQRPGQSPRRLIYLVSKLDSGVPDRFAGSGSGTDFTLKITRVEAEDLGVYYCAQGTHFPRTFGGGSKLEIRRTVAAPSVFIFPPSDEQLKSGTASVVCLLNNFYPREAKVQWKVDNALQSGNSQESVTEQDSKDSTYSLSSTLTLSKADYEKHKVYACEVTHQGLSSPVTKSFNRGEC | 1.57 nM | 1300 | – | –
6 | F11-17 (bispecific antibody, formula 11 with Chi-1 variable regions) heavy: not shown light: DVVMTQTPLSLSVSLGDQASISCRSSQSLVHSNGNTYLYWYLQKPGQSPKLLIYKVSNRFSGVPDRFSGSGSGTDFTLKISRVEAEDLGVYFCSQSTHVPPLTFGAGTKLELKRTVAAPSVFIFPPSDEQLKSGTASVVCLLNNFYPREAKVQWKVDNALQSGNSQESVTEQDSKDSTYSLSSTLTLSKADYEKHKVYACEVTHQGLSSPVTKSFNRGEC | 0.31 nM | 1.82 | 0.35 nM | 0.98

Now from value to binder:

Row | EC50 [1] | Max [1] | EC50 [2] | Max [2] | Binder
7 | 1.64 nM | 1250 | 1.91 nM | 14600 | Chi-45 (antibody, human IgG1, kappa, L234A L235A, V domains shown) VH: EVKLVESGGGLVQPGDFLSLSCAASGFTFTDYYLSWVRQPPGKALEWLAFIRNRAKGYTTEYSASVKGRFTISRDNSQSILYLQMNVLRAEDSATYYCARMGGKGWHFDVWGTGTTVTVSS VL: DVLMTQSPLSLPVSLGDQASISCRSSQSIVHSNGNTYLEWYLQKPGQSPKLLIYKVSNRFSGVPDRFFGSGSGTDFTLKINRVEAEDLGVYYCFQGSHVPFTFGGGTKLEIKR
8 | 0.46 nM | 2100 | 1.57 nM | 7940 | Chi-30 (antibody, human IgG1, kappa, L234A L235A, V domains shown) VH: EVQLQQSGPELVKPGGSMKISCKASGYSFTGYTMNWVKQSHGKNPEWIGLINPYNGGTRNNQKFKDKATLTVDKSSSTAYMELLSLTSEDSAVYYCTRWGLRLAMDYWGQGTSVTVSS VL: DIVMTQSQKFMSTSVGDRVSVTCKASQNVGSNVAWYQQKPGQSPKALIYSASYRYSGVPDRFTGSGSGTDFTLTISNVQSEDLAEYFCHQYNSYPPTFGAGTKLALKR
9 | – | – | 0.06 nM | 0.26 | JNJ-64407564 (bispecific antibody, human IgG4 S228P, kappa, lambda, F234A L235A, anti-GPRC5D arm and anti-CD3E arm; also called positive control molecule) heavy 1: not shown light 1: DIQMTQSPSSLSASVGDRVTITCKASQNVATHVGWYQQKPGKAPKRLIYSASYRYSGVPSRFSGSGSGTEFTLTISNLQPEDFATYYCQQYNRYPYTFGQGTKLEIKRTVAAPSVFIFPPSDEQLKSGTASVVCLLNNFYPREAKVQWKVDNALQSGNSQESVTEQDSKDSTYSLSSTLTLSKADYEKHKVYACEVTHQGLSSPVTKSFNRGEC heavy 2: EVQLVESGGGLVQPGGSLRLSCAASGFTFNTYAMNWVRQAPGKGLEWVARIRSKYNNYATYYAASVKGRFTISRDDSKNSLYLQMNSLKTEDTAVYYCARHGNFGNSYVSWFAYWGQGTLVTVSSASTKGPSVFPLAPCSRSTSESTAALGCLVKDYFPEPVTVSWNSGALTSGVHTFPAVLQSSGLYSLSSVVTVPSSSLGTKTYTCNVDHKPSNTKVDKRVESKYGPPCPPCPAPEAAGGPSVFLFPPKPKDTLMISRTPEVTCVVVDVSQEDPEVQFNWYVDGVEVHNAKTKPREEQFNSTYRVVSVLTVLHQDWLNGKEYKCKVSNKGLPSSIEKTISKAKGQPREPQVYTLPPSQEEMTKNQVSLTCLVKGFYPSDIAVEWESNGQPENNYKTTPPVLDSDGSFLLYSKLTVDKSRWQEGNVFSCSVMHEALHNHYTQKSLSLSLGK light 2: QTVVTQEPSLTVSPGGTVTLTCRSSTGAVTTSNYANWVQQKPGQAPRGLIGGTNKRAPGTPARFSGSLLGGKAALTLSGVQPEDEAEYYCALWYSNLWVFGGGTKLTVLGQPKAAPSVTLFPPSSEELQANKATLVCLISDFYPGAVTVAWKADSSPVKAGVETTTPSKQSNNKYAASSYLSLTPEQWKSHRSYSCQVTHEGSTVEKTVAPTECS
10 | 1.43 nM | 5210 | 1.2 nM | 7880 | Chi-1 (antibody, human IgG1, kappa, L234A L235A, V domains shown) VH: EVQLVESGGGLVKPGGSLKLSCAASGFTFSDYGMHWVRQAPEKGLEWVAFISSGSSTIYYADTVKGRFTISRDNAKNTLFLQMTSLRSEDTAIYYCTRLGPNWYFDVWGTGTTVTVSS VL: DVVMTQTPLSLSVSLGDQASISCRSSQSLVHSNGNTYLYWYLQKPGQSPKLLIYKVSNRFSGVPDRFSGSGSGTDFTLKISRVEAEDLGVYFCSQSTHVPPLTFGAGTKLELKR
11 | 2.81 nM | 5000 | 3.96 nM | 9630 | Chi-24 (antibody, human IgG1, kappa, L234A L235A, V domains shown) VH: QVQLQQSDAELVKPGGSVKISCKVSGYTFTDYPIHWMKQRPEQGLEWMGYVFPRDGSTKYNEKFRVKATWTADKSSSTVYMQLNSLTSDDSAVYFCSRELTAYWGQGTTLRVSS VL: not shown
